± gives the standard deviation.
Assay: collision cross section of modified peptide (TIMS, N2, iRT-aligned); higher = larger / more extended gas-phase ion
Outline: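 On a timsTOF Pro/HT (dda-PASEF, nitrogen, ~2.4 mbar), synthetic peptide pools were analysed after a 120-min nanoflow C18 separation at 60 °C and identified in MaxQuant. Three reference ions served for 1/K0 calibration, with run-wise alignment to the median iRT peptide deviation. Collision cross section comes from the Mason-Schamp equation, using the most abundant feature per charge state averaged over 1–3 technical replicates.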

[1] = charge state: 2, modification: Butyryl
[2] = charge state: 3, modification: Butyryl
[3] = charge state: 2, modification: hydroxyisobutyryl
[4] = charge state: 2, modification: Nitro (Y)
[5] = charge state: 2, modification: GlyGly (K)
[6] = charge state: 3, modification: GlyGly (K)
[7] = charge state: 2, modification: Acetyl (K)
[8] = charge state: 3, modification: Acetyl (K)
[9] = charge state: 2, modification: Malonyl
[10] = charge state: 3, modification: Methyl (R)
[11] = charge state: 2, modification: Crotonyl
[12] = charge state: 2, modification: Dimethyl (K)
[13] = charge state: 3, modification: Dimethyl (K)
[14] = charge state: 2, modification: Phospho (Y)
[15] = charge state: 2, modification: Trimethyl (K)
[16] = charge state: 3, modification: Trimethyl (K)
[17] = charge state: 2, modification: Succinyl
[18] = charge state: 3, modification: Succinyl
[19] = charge state: 2, modification: Propionyl
[20] = charge state: 3, modification: Hydroxyproline
[21] = charge state: 2, modification: Citrullination (R)
[22] = charge state: 3, modification: Citrullination (R)
[23] = charge state: 3, modification: Glutarylation
[24] = charge state: 2, modification: Methyl (K)
[25] = charge state: 3, modification: Methyl (K)

SPDEAYAIAKK [_SPDEAYAIAK(Butyryl)K_] gave a collision cross section [1] of 376.59 ± 1.2 Å² and a collision cross section [2] of 446.36 ± 0.47 Å².
Work on “ANEKTESSSAQQVAVSR [_ANEK(hydroxyisobutyryl)TESSSAQQVAVSR_]” yielded a collision cross section [3] of 442.41 ± 0.29 Å² and a collision cross section (charge state: 3, modification: hydroxyisobutyryl) of 538.5 ± 0.04 Å².
Work on LSSETYSQAK [_LSSETY(Nitro (Y))SQAK_] yielded a collision cross section [4] of 352.74 ± 0.47 Å².
Sequence “IYELAAGGTAVGTGLNTR [_IY(Nitro (Y))ELAAGGTAVGTGLNTR_]” has a collision cross section [4] of 447.13 ± 1.1 Å².
In the case of “TGGTQTDLFTCGKCK [_TGGTQTDLFTCGK(Butyryl)CK_]”, the collision cross section [1] is reported as 444.65 Å².
Sequence DFDTALKHYDK [_DFDTALK(GlyGly (K))HYDK_] has a collision cross section [5] of 400.17 ± 0.77 Å² and a collision cross section [6] of 467.02 ± 1.1 Å².
Sequence “IHVQSSSDSSDEPAEKR [_IHVQSSSDSSDEPAEK(Acetyl (K))R_]” has a collision cross section [7] of 446.96 ± 2.2 Å² and a collision cross section [8] of 501.64 ± 1.1 Å².
“ATVASSTQKFQDLGVK [_ATVASSTQK(Butyryl)FQDLGVK_]” gave a collision cross section [1] of 453.04 ± 1.1 Å² and a collision cross section [2] of 495.56 ± 1.9 Å².
In the case of “DYVSQFEGSALGK [_DY(Nitro (Y))VSQFEGSALGK_]”, the collision cross section [4] is reported as 387.16 ± 0.17 Å².
“GTITVSAQELKDNR [_GTITVSAQELK(Malonyl)DNR_]” gave a collision cross section [9] of 419.75 ± 0.051 Å².
“VLDSGAPIKIPVGPETLGR [_VLDSGAPIK(Formyl)IPVGPETLGR_]” showed a collision cross section (charge state: 2, modification: Formyl) of 463.34 ± 1.2 Å².
For “GRGTGEAEEEYVGPR [_GR(Methyl (R))GTGEAEEEYVGPR_]”, the collision cross section [10] was 491.55 ± 1.6 Å².
Work on “LLIVSTTPYSEKDTK [_LLIVSTTPYSEK(Acetyl (K))DTK_]” yielded a collision cross section [7] of 449.39 ± 2.3 Å² and a collision cross section [8] of 486.31 ± 3 Å².
With IQTKAGEATVK [_IQTK(Crotonyl)AGEATVK_] the collision cross section [11] was 371.41 ± 0.56 Å².
Work on ASEALLKQLK [_ASEALLK(Dimethyl (K))QLK_] yielded a collision cross section [12] of 366.02 ± 0.28 Å² and a collision cross section [13] of 439.24 ± 2.8 Å².
Sequence “DLTTAGAVTQCYR [_DLTTAGAVTQCY(Phospho (Y))R_]” has a collision cross section [14] of 405.28 ± 0.061 Å².
Work on “GTITVSAQELKDNR [_GTITVSAQELK(Crotonyl)DNR_]” yielded a collision cross section [11] of 422.36 ± 0.55 Å² and a collision cross section (charge state: 3, modification: Crotonyl) of 483.09 ± 1.6 Å².
“LEQVEKELLR [_LEQVEK(Trimethyl (K))ELLR_]” showed a collision cross section [15] of 387.44 ± 0.62 Å² and a collision cross section [16] of 446.8 ± 1.8 Å².
VETTVTSLKTK [_VETTVTSLK(Succinyl)TK_] gave a collision cross section [17] of 381.14 ± 3.4 Å² and a collision cross section [18] of 451.06 Å².
In the case of “VNVEAPDVNLEGLGGKLK [_VNVEAPDVNLEGLGGK(GlyGly (K))LK_]”, the collision cross section [5] is reported as 470.77 ± 1.4 Å² and the collision cross section [6] is reported as 551.19 ± 1.1 Å².
“SLFFGGKGAPLQR [_SLFFGGK(Acetyl (K))GAPLQR_]” gave a collision cross section [7] of 401.47 ± 0.85 Å².
With “DAEAAEATAEGALKAEK [_DAEAAEATAEGALK(Acetyl (K))AEK_]” the collision cross section [7] was 451.64 ± 19 Å² and the collision cross section [8] was 539.19 ± 1.8 Å².
With “AAINQKLIETGER [_AAINQK(Malonyl)LIETGER_]” the collision cross section [9] was 404.84 ± 0.034 Å² and the collision cross section (charge state: 3, modification: Malonyl) was 473.19 Å².
Work on VETTVTSLKTK [_VETTVTSLK(Butyryl)TK_] yielded a collision cross section [1] of 389.24 ± 1.3 Å².
Sequence “GTITVSAQELKDNR [_GTITVSAQELK(Trimethyl (K))DNR_]” has a collision cross section [15] of 442.48 ± 1 Å² and a collision cross section [16] of 479.04 ± 1.8 Å².
“VLTANSNPSSPSAAKR [_VLTANSNPSSPSAAK(Propionyl)R_]” gave a collision cross section [19] of 429.75 ± 0.38 Å² and a collision cross section (charge state: 3, modification: Propionyl) of 528.16 ± 0.65 Å².
“RGFGFGGFAISAGK [_R(Methyl (R))GFGFGGFAISAGK_]” showed a collision cross section [10] of 488.52 ± 3.4 Å².
In the case of “IHNAENIQPGEQKYEYK [_IHNAENIQPGEQK(Trimethyl (K))YEYK_]”, the collision cross section [16] is reported as 526.11 ± 2.2 Å².
Sequence “PASGAGAGAGAGKR [_PASGAGAGAGAGK(Butyryl)R_]” has a collision cross section [1] of 358.98 ± 1.3 Å² and a collision cross section [2] of 461.52 ± 2.9 Å².
With “ITLSKHQNVQLPR [_ITLSK(Succinyl)HQNVQLPR_]” the collision cross section [17] was 418.56 ± 0.53 Å² and the collision cross section [18] was 485.89 ± 2 Å².
Sequence THLAPYSDELR [_THLAPY(Nitro (Y))SDELR_] has a collision cross section [4] of 377.13 ± 2.5 Å² and a collision cross section (charge state: 3, modification: Nitro (Y)) of 453.98 ± 1.8 Å².
“GEKGDPGLIGPK [_GEKGDP(Hydroxyproline)GLIGPK_]” showed a collision cross section (charge state: 2, modification: Hydroxyproline) of 375.69 ± 1.9 Å² and a collision cross section [20] of 437 ± 1.3 Å².
“PLRAASPFR [_PLR(Citrullination (R))AASPFR_]” showed a collision cross section [21] of 334.99 ± 0.26 Å² and a collision cross section [22] of 442.41 Å².
Work on “GTITVSAQELKDNR [_GTITVSAQELK(Butyryl)DNR_]” yielded a collision cross section [1] of 422.6 ± 0.77 Å² and a collision cross section [2] of 481.65 ± 2.9 Å².
Sequence “IHNAENIQPGEQKYEYK [_IHNAENIQPGEQK(Acetyl (K))YEYK_]” has a collision cross section [7] of 481.31 Å² and a collision cross section [8] of 525.52 ± 2.1 Å².
“LGVATVAKGVCGACK [_LGVATVAK(hydroxyisobutyryl)GVCGACK_]” showed a collision cross section [3] of 419.46 ± 1.2 Å².
LLEQKTQESQK [_LLEQK(Propionyl)TQESQK_] showed a collision cross section [19] of 393.54 ± 0.65 Å².
DYGNSPLHR [_DY(Phospho (Y))GNSPLHR_] showed a collision cross section [14] of 345.01 ± 0.066 Å² and a collision cross section (charge state: 3, modification: Phospho (Y)) of 444.49 Å².
With “GIGRGTVQALHATGAR [_GIGR(Methyl (R))GTVQALHATGAR_]” the collision cross section [10] was 502.48 ± 1.9 Å².
In the case of “ATVASSTQKFQDLGVK [_ATVASSTQK(Dimethyl (K))FQDLGVK_]”, the collision cross section [12] is reported as 461.58 ± 1.2 Å² and the collision cross section [13] is reported as 471.81 ± 2.1 Å².
“VQGGALEDSQLVAGVAFKK [_VQGGALEDSQLVAGVAFK(Acetyl (K))K_]” gave a collision cross section [7] of 468.5 Å² and a collision cross section [8] of 554.41 Å².
In the case of “VDIDVPDVNIEGPDAKLK [_VDIDVPDVNIEGPDAK(Crotonyl)LK_]”, the collision cross section [11] is reported as 487.32 Å².
In the case of “GRGTSQLAEGATAK [_GR(Methyl (R))GTSQLAEGATAK_]”, the collision cross section (charge state: 2, modification: Methyl (R)) is reported as 391.78 ± 1.4 Å² and the collision cross section [10] is reported as 464.6 ± 2.7 Å².
“SGGGYGGDRGGGYGGDR [_SGGGYGGDR(Citrullination (R))GGGYGGDR_]” gave a collision cross section [21] of 393.58 ± 0.28 Å² and a collision cross section [22] of 470.6 ± 4.1 Å².
Work on “PGPQPSAETTR [_P(Hydroxyproline)GPQPSAETTR_]” yielded a collision cross section [20] of 412.85 Å².
For “LQAAYAGDKADDIQK [_LQAAYAGDK(Trimethyl (K))ADDIQK_]”, the collision cross section [15] was 440.52 ± 0.59 Å² and the collision cross section [16] was 477.2 ± 1.8 Å².
Work on “TQDQISNIKYHEEFEK [_TQDQISNIK(Gluratylation)YHEEFEK_]” yielded a collision cross section [23] of 554.46 ± 0.14 Å².
Work on ITLSKHQNVQLPR [_ITLSK(Biotin)HQNVQLPR_] yielded a collision cross section (charge state: 3, modification: Biotin) of 502.67 Å².
SKLLFSNTAAQK [_SK(Biotin)LLFSNTAAQK_] gave a collision cross section (charge state: 2, modification: Biotin) of 417.26 ± 2.9 Å².
For “IINEPTAAAIAYGLDKK [_IINEPTAAAIAYGLDK(Butyryl)K_]”, the collision cross section [1] was 465.29 ± 0.5 Å² and the collision cross section [2] was 559.62 ± 0.45 Å².
For “FDDTNPEKEEAK [_FDDTNPEK(Dimethyl (K))EEAK_]”, the collision cross section [12] was 399.09 ± 0.55 Å² and the collision cross section [13] was 487.33 ± 2.2 Å².
Sequence “ANAIGRGAK [_ANAIGR(Citrullination (R))GAK_]” has a collision cross section [21] of 313.03 ± 0.86 Å².
For “LQAAYAGDKADDIQK [_LQAAYAGDK(Butyryl)ADDIQK_]”, the collision cross section [1] was 436.77 ± 0.53 Å² and the collision cross section [2] was 489.7 ± 2.9 Å².
Work on “VTLEVGKVIQQGR [_VTLEVGK(Methyl (K))VIQQGR_]” yielded a collision cross section [24] of 428.74 ± 1.9 Å² and a collision cross section [25] of 464.87 ± 3.7 Å².
In the case of “FGTINIVHPKLGSYTK [_FGTINIVHPK(Gluratylation)LGSYTK_]”, the collision cross section (charge state: 2, modification: Glutarylation) is reported as 478.34 Å² and the collision cross section [23] is reported as 554.9 ± 0.14 Å².
In the case of “SQAGASELGPFSDPR [_SQAGASELGPFS(HexNAc (ST))DPR_]”, the collision cross section (charge state: 2, modification: HexNAc (ST)) is reported as 425.39 ± 1.3 Å².
Sequence “DESFLGKLGGTLAR [_DESFLGK(GlyGly (K))LGGTLAR_]” has a collision cross section [5] of 437.68 ± 0.96 Å² and a collision cross section [6] of 486.51 ± 1.1 Å².
“DASTLQSQKAEGTGDAK [_DASTLQSQK(Succinyl)AEGTGDAK_]” gave a collision cross section [17] of 437.2 ± 0.35 Å² and a collision cross section [18] of 509.05 ± 1.6 Å².
Sequence GAEKTEVAEPR [_GAEK(Butyryl)TEVAEPR_] has a collision cross section [1] of 380.97 ± 1.3 Å².
“IQTKAGEATVK [_IQTK(Dimethyl (K))AGEATVK_]” showed a collision cross section [12] of 367.67 ± 0.82 Å².
Sequence “SSFAYKDQNENR [_SSFAYK(Methyl (K))DQNENR_]” has a collision cross section [24] of 422.28 ± 0.64 Å² and a collision cross section [25] of 455.52 ± 4 Å².
With “SDSGKPYYYNSQTK [_SDSGK(Acetyl (K))PYYYNSQTK_]” the collision cross section [7] was 419.63 ± 2 Å².
“IHVQSSSDSSDEPAEKR [_IHVQSSSDSSDEPAEK(Succinyl)R_]” gave a collision cross section [17] of 452.62 ± 0.81 Å² and a collision cross section [18] of 507.09 ± 1.9 Å².
“AAINQKLIETGER [_AAINQK(Propionyl)LIETGER_]” gave a collision cross section [19] of 404.63 ± 0.38 Å².
